Measurements published in US20040039173A1 (SALK INSTITUTE FOR BIOLOGICAL STUDIES, published 2004).
Values belong to the molecule of their own block, whether it stands above or below them. No end group written: not given here.

Experiments:
[1] = target: human CRF receptor, subtype A, variant 1 (hCRF-RA1), encoded by clone hctCRFR (human) (UniProt P34998); assay: binding to the receptor encoded by hctCRFR in COSM6 cell membranes (competitive radioreceptor assay of Example 3)
[2] = target: T1, mouse CRF receptor, subtype B, variant 1 (mCRF-RB1) (mouse, UniProt Q60748 35-411); assay: competitive displacement of 125I-(Nle21,Tyr32)-ovine CRF, membranes of COSM6 cells transfected with pCRF-RB1
T1 construct: Full-length cDNA (431 amino acids) in pcDNA1, transiently expressed in COSM6 cells; also called pCRF-RB1
T1 sequence (Q60748 other isoform, or with tags, fused parts or gaps mutant limits assumed): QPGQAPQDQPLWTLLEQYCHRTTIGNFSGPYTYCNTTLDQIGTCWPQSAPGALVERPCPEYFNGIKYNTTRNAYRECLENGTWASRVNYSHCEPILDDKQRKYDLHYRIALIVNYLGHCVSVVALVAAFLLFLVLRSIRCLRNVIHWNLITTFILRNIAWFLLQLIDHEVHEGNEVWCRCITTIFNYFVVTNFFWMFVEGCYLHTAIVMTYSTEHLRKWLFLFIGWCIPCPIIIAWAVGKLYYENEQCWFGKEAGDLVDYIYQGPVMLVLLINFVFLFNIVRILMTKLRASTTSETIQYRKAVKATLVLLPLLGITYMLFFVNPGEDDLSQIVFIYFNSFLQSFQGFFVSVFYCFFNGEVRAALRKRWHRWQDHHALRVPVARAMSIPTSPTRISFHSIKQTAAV
Protocol: (§1) The reaction was terminated by filtration through GF/C (Whatman) filters, prewetted with 1% BSA, 10 mM HEPES, pH 7.5. The filters were washed 4 times with 1 ml 0.1% BSA, 50 mM Tris, pH 7.5.
(§2) Using the methods described in Example 3, a radioreceptor assay was conducted. Approximately […] of pCRF-RB₁ plasmid DNA was transfected into COSM6 cells using the DEAE dextran method. […] In order to calculate a Kd, the displacement data were analyzed using the Ligand program of Munson and Rodbard (1980), Anal. Biochem., 107:220-239.

[3] = target: T2, human CRF receptor, subtype A, variant 1 (hCRF-RA1), encoded by clone hctCRFR (human, UniProt P34998 24-415); assay: pharmacologic specificity of the receptor of SEQ ID NO:2
T2 construct: Transiently expressed in COSM6 cells; Clone hctCRFR (ATCC 75474) and clone CRF-R1 are both said to encode hCRF-RA1; also called CRF-R1; hctCRF receptor
T2 sequence: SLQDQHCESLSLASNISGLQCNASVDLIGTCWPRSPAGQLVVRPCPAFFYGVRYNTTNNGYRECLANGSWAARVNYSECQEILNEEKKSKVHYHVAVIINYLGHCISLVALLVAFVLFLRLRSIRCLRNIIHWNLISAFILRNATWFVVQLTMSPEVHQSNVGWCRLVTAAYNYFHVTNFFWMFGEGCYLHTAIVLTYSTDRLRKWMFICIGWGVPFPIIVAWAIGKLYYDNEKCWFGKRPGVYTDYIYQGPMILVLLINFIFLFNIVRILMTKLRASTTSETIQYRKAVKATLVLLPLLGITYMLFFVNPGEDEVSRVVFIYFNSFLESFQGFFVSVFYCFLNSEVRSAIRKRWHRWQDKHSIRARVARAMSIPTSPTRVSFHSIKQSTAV

[4] = target: T1, mouse CRF receptor, subtype B, variant …; assay: competitive displacement of 125I-(Nle21,Tyr32)-ovine CRF, membranes of COSM6 cells transfected with pCRF-RB1, Ligand program, six experiments
Protocol: as §1, §2

- binding result [2]: no binding
B3: vasoactive intestinal peptide (VIP) (peptide, UniProt P01282 125-152, looked up)
peptide: HSDAVFTDNYTRLRKQMAVKKYLNSILN
notes: also called vasoactive intestinal polypeptide

- Kd [4]: ~1.3 nM
B4: rat/human corticotropin-releasing factor (r/h CRF) (ligand, UniProt P06850 154-194, looked up)
peptide: SEEPPISLDLTFHLLREVLEMARAEQLAQQAHSNRKLMEII
notes: mature; The peptide in the assay is the mature 41-residue CRF; also called human/rat CRF; native r/h CRF

Continued, molecule first:

Molecule: CRF antagonist a-helical (9-41) CRF (peptide)
- Kd [1]: 13 nM

B1: hGRF(1-40)OH (peptide, UniProt P01286 32-71, looked up)
peptide: YADAIFTNSYRKVLGQLSARKLLQDIMSRQQGESNQERGA-OH
notes: range 1-40; also called growth hormone releasing factor
- binding result [2]: no binding

B2: sauvagine (ligand, UniProt P01144 1-40, looked up)
peptide: QGPPISIDLSLELLRKMIEIEKQEKEKQQAANNRLLLDTI
- binding result [3]: binds
